Experimental data published in US20140087995A1 (published 2014).
Numbered stars: 1 amine (or outer) side, 2 acyl side, 3 side chain; on linkers, the order of the positions; unused ones are H or OH. Bridge positions count the residues as written; N and C are the ends. Side chains are listed from the residue outwards. Ends that are not written are not given here. * marks the point of attachment. C20 diacid = O=C(O)CCCCCCCCCCCCCCCCCCC(=O)*; γGlu = O=C(O)[C@H](CCC(=O)[*:2])N[*:1]

T1: human calcitonin receptor (human, UniProt P30988 25-474)
T1 construct: whole, on cells; Used as cell membranes; also called hCTR; hCT
T1 sequence (looked up): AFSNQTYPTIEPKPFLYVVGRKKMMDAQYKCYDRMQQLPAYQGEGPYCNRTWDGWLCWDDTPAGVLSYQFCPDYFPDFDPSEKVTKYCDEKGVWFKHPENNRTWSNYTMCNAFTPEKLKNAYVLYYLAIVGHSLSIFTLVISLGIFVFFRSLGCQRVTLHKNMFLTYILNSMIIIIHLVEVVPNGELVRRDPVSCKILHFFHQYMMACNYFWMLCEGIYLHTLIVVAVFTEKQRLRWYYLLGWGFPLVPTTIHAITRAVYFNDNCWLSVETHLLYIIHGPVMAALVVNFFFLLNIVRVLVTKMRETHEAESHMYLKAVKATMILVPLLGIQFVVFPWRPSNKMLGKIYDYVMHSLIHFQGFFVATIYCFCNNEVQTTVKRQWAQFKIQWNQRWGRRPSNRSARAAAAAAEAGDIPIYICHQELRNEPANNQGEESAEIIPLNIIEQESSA

B1: N^ε1-[(4S)-4-carboxy-4-(19-carboxynonadecanoylamino)butanoyl]-[Ala14,Arg17,Pro21,Pro27,His34]-h-amylin (peptide)
peptide: K([γGlu-C20 diacid])CNTATCATQRLAAFLRHSSPNFGAIPSSTNVGHNTY-NH2
modifications: disulfide 2-7; N-terminus assumed
SMILES: CC[C@H](C)[C@H](NC(=O)[C@H](C)NC(=O)CNC(=O)[C@H](Cc1ccccc1)NC(=O)[C@H](CC(N)=O)NC(=O)[C@@H]1CCCN1C(=O)[C@H](CO)NC(=O)[C@H](CO)NC(=O)[C@H](Cc1c[nH]cn1)NC(=O)[C@H](CCCNC(=N)N)NC(=O)[C@H](CC(C)C)NC(=O)[C@H](Cc1ccccc1)NC(=O)[C@H](C)NC(=O)[C@H](C)NC(=O)[C@H](CC(C)C)NC(=O)[C@H](CCCNC(=N)N)NC(=O)[C@H](CCC(N)=O)NC(=O)[C@@H](NC(=O)[C@H](C)NC(=O)[C@@H]1CSSC[C@H](NC(=O)[C@@H](N)CCCCNC(=O)CC[C@H](NC(=O)CCCCCCCCCCCCCCCCCCC(=O)O)C(=O)O)C(=O)N[C@@H](CC(N)=O)C(=O)N[C@@H]([C@@H](C)O)C(=O)N[C@@H](C)C(=O)N[C@@H]([C@@H](C)O)C(=O)N1)[C@@H](C)O)C(=O)N1CCC[C@H]1C(=O)N[C@@H](CO)C(=O)N[C@@H](CO)C(=O)N[C@H](C(=O)N[C@@H](CC(N)=O)C(=O)N[C@H](C(=O)NCC(=O)N[C@@H](Cc1c[nH]cn1)C(=O)N[C@@H](CC(N)=O)C(=O)N[C@H](C(=O)N[C@@H](Cc1ccc(O)cc1)C(N)=O)[C@@H](C)O)C(C)C)[C@@H](C)O
notes: also called compound 93
B2: N^ε1-[(4S)-4-carboxy-4-(19-carboxynonadecanoylamino)butanoyl]-[Glu14,Arg17,Pro21,Pro27,His34,Glu35]-h-amylin (peptide)
peptide: K([γGlu-C20 diacid])CNTATCATQRLAEFLRHSSPNFGAIPSSTNVGHETY-NH2
modifications: disulfide 2-7; N-terminus assumed
SMILES: CC[C@H](C)[C@H](NC(=O)[C@H](C)NC(=O)CNC(=O)[C@H](Cc1ccccc1)NC(=O)[C@H](CC(N)=O)NC(=O)[C@@H]1CCCN1C(=O)[C@H](CO)NC(=O)[C@H](CO)NC(=O)[C@H](Cc1c[nH]cn1)NC(=O)[C@H](CCCNC(=N)N)NC(=O)[C@H](CC(C)C)NC(=O)[C@H](Cc1ccccc1)NC(=O)[C@H](CCC(=O)O)NC(=O)[C@H](C)NC(=O)[C@H](CC(C)C)NC(=O)[C@H](CCCNC(=N)N)NC(=O)[C@H](CCC(N)=O)NC(=O)[C@@H](NC(=O)[C@H](C)NC(=O)[C@@H]1CSSC[C@H](NC(=O)[C@@H](N)CCCCNC(=O)CC[C@H](NC(=O)CCCCCCCCCCCCCCCCCCC(=O)O)C(=O)O)C(=O)N[C@@H](CC(N)=O)C(=O)N[C@@H]([C@@H](C)O)C(=O)N[C@@H](C)C(=O)N[C@@H]([C@@H](C)O)C(=O)N1)[C@@H](C)O)C(=O)N1CCC[C@H]1C(=O)N[C@@H](CO)C(=O)N[C@@H](CO)C(=O)N[C@H](C(=O)N[C@@H](CC(N)=O)C(=O)N[C@H](C(=O)NCC(=O)N[C@@H](Cc1c[nH]cn1)C(=O)N[C@@H](CCC(=O)O)C(=O)N[C@H](C(=O)N[C@@H](Cc1ccc(O)cc1)C(N)=O)[C@@H](C)O)C(C)C)[C@@H](C)O
notes: also called compound 107
B3: N^ε1-[(4S)-4-carboxy-4-(19-carboxynonadecanoylamino)butanoyl]-[Ala14,Arg17,Pro21,Pro27,Pro34]-h-amylin (peptide)
peptide: K([γGlu-C20 diacid])CNTATCATQRLAAFLRHSSPNFGAIPSSTNVGPNTY-NH2
modifications: disulfide 2-7; N-terminus assumed
SMILES: CC[C@H](C)[C@H](NC(=O)[C@H](C)NC(=O)CNC(=O)[C@H](Cc1ccccc1)NC(=O)[C@H](CC(N)=O)NC(=O)[C@@H]1CCCN1C(=O)[C@H](CO)NC(=O)[C@H](CO)NC(=O)[C@H](Cc1c[nH]cn1)NC(=O)[C@H](CCCNC(=N)N)NC(=O)[C@H](CC(C)C)NC(=O)[C@H](Cc1ccccc1)NC(=O)[C@H](C)NC(=O)[C@H](C)NC(=O)[C@H](CC(C)C)NC(=O)[C@H](CCCNC(=N)N)NC(=O)[C@H](CCC(N)=O)NC(=O)[C@@H](NC(=O)[C@H](C)NC(=O)[C@@H]1CSSC[C@H](NC(=O)[C@@H](N)CCCCNC(=O)CC[C@H](NC(=O)CCCCCCCCCCCCCCCCCCC(=O)O)C(=O)O)C(=O)N[C@@H](CC(N)=O)C(=O)N[C@@H]([C@@H](C)O)C(=O)N[C@@H](C)C(=O)N[C@@H]([C@@H](C)O)C(=O)N1)[C@@H](C)O)C(=O)N1CCC[C@H]1C(=O)N[C@@H](CO)C(=O)N[C@@H](CO)C(=O)N[C@H](C(=O)N[C@@H](CC(N)=O)C(=O)N[C@H](C(=O)NCC(=O)N1CCC[C@H]1C(=O)N[C@@H](CC(N)=O)C(=O)N[C@H](C(=O)N[C@@H](Cc1ccc(O)cc1)C(N)=O)[C@@H](C)O)C(C)C)[C@@H](C)O
notes: also called compound 94
B4: N^ε1-[(4S)-4-carboxy-4-(19-carboxynonadecanoylamino)butanoyl]-[Arg14,Arg17,Pro21,Pro27,Pro34]-h-amylin (peptide)
peptide: K([γGlu-C20 diacid])CNTATCATQRLARFLRHSSPNFGAIPSSTNVGPNTY-NH2
modifications: disulfide 2-7; N-terminus assumed
SMILES: CC[C@H](C)[C@H](NC(=O)[C@H](C)NC(=O)CNC(=O)[C@H](Cc1ccccc1)NC(=O)[C@H](CC(N)=O)NC(=O)[C@@H]1CCCN1C(=O)[C@H](CO)NC(=O)[C@H](CO)NC(=O)[C@H](Cc1c[nH]cn1)NC(=O)[C@H](CCCNC(=N)N)NC(=O)[C@H](CC(C)C)NC(=O)[C@H](Cc1ccccc1)NC(=O)[C@H](CCCNC(=N)N)NC(=O)[C@H](C)NC(=O)[C@H](CC(C)C)NC(=O)[C@H](CCCNC(=N)N)NC(=O)[C@H](CCC(N)=O)NC(=O)[C@@H](NC(=O)[C@H](C)NC(=O)[C@@H]1CSSC[C@H](NC(=O)[C@@H](N)CCCCNC(=O)CC[C@H](NC(=O)CCCCCCCCCCCCCCCCCCC(=O)O)C(=O)O)C(=O)N[C@@H](CC(N)=O)C(=O)N[C@@H]([C@@H](C)O)C(=O)N[C@@H](C)C(=O)N[C@@H]([C@@H](C)O)C(=O)N1)[C@@H](C)O)C(=O)N1CCC[C@H]1C(=O)N[C@@H](CO)C(=O)N[C@@H](CO)C(=O)N[C@H](C(=O)N[C@@H](CC(N)=O)C(=O)N[C@H](C(=O)NCC(=O)N1CCC[C@H]1C(=O)N[C@@H](CC(N)=O)C(=O)N[C@H](C(=O)N[C@@H](Cc1ccc(O)cc1)C(N)=O)[C@@H](C)O)C(C)C)[C@@H](C)O
notes: also called compound 65
B5: N^ε1-[(4S)-4-carboxy-4-(19-carboxynonadecanoylamino)butanoyl]-[Glu14,Arg17,Pro21,Pro27,Arg34,Glu35]-h-amylin (peptide)
peptide: K([γGlu-C20 diacid])CNTATCATQRLAEFLRHSSPNFGAIPSSTNVGRETY-NH2
modifications: disulfide 2-7; N-terminus assumed
SMILES: CC[C@H](C)[C@H](NC(=O)[C@H](C)NC(=O)CNC(=O)[C@H](Cc1ccccc1)NC(=O)[C@H](CC(N)=O)NC(=O)[C@@H]1CCCN1C(=O)[C@H](CO)NC(=O)[C@H](CO)NC(=O)[C@H](Cc1c[nH]cn1)NC(=O)[C@H](CCCNC(=N)N)NC(=O)[C@H](CC(C)C)NC(=O)[C@H](Cc1ccccc1)NC(=O)[C@H](CCC(=O)O)NC(=O)[C@H](C)NC(=O)[C@H](CC(C)C)NC(=O)[C@H](CCCNC(=N)N)NC(=O)[C@H](CCC(N)=O)NC(=O)[C@@H](NC(=O)[C@H](C)NC(=O)[C@@H]1CSSC[C@H](NC(=O)[C@@H](N)CCCCNC(=O)CC[C@H](NC(=O)CCCCCCCCCCCCCCCCCCC(=O)O)C(=O)O)C(=O)N[C@@H](CC(N)=O)C(=O)N[C@@H]([C@@H](C)O)C(=O)N[C@@H](C)C(=O)N[C@@H]([C@@H](C)O)C(=O)N1)[C@@H](C)O)C(=O)N1CCC[C@H]1C(=O)N[C@@H](CO)C(=O)N[C@@H](CO)C(=O)N[C@H](C(=O)N[C@@H](CC(N)=O)C(=O)N[C@H](C(=O)NCC(=O)N[C@@H](CCCNC(=N)N)C(=O)N[C@@H](CCC(=O)O)C(=O)N[C@H](C(=O)N[C@@H](Cc1ccc(O)cc1)C(N)=O)[C@@H](C)O)C(C)C)[C@@H](C)O
B6: N^ε1-[(4S)-4-carboxy-4-(19-carboxynonadecanoylamino)butanoyl]-[Arg17,Pro21,Pro27,Arg34]-h-amylin (peptide)
peptide: K([γGlu-C20 diacid])CNTATCATQRLANFLRHSSPNFGAIPSSTNVGRNTY-NH2
modifications: disulfide 2-7; N-terminus assumed
SMILES: CC[C@H](C)[C@H](NC(=O)[C@H](C)NC(=O)CNC(=O)[C@H](Cc1ccccc1)NC(=O)[C@H](CC(N)=O)NC(=O)[C@@H]1CCCN1C(=O)[C@H](CO)NC(=O)[C@H](CO)NC(=O)[C@H](Cc1c[nH]cn1)NC(=O)[C@H](CCCNC(=N)N)NC(=O)[C@H](CC(C)C)NC(=O)[C@H](Cc1ccccc1)NC(=O)[C@H](CC(N)=O)NC(=O)[C@H](C)NC(=O)[C@H](CC(C)C)NC(=O)[C@H](CCCNC(=N)N)NC(=O)[C@H](CCC(N)=O)NC(=O)[C@@H](NC(=O)[C@H](C)NC(=O)[C@@H]1CSSC[C@H](NC(=O)[C@@H](N)CCCCNC(=O)CC[C@H](NC(=O)CCCCCCCCCCCCCCCCCCC(=O)O)C(=O)O)C(=O)N[C@@H](CC(N)=O)C(=O)N[C@@H]([C@@H](C)O)C(=O)N[C@@H](C)C(=O)N[C@@H]([C@@H](C)O)C(=O)N1)[C@@H](C)O)C(=O)N1CCC[C@H]1C(=O)N[C@@H](CO)C(=O)N[C@@H](CO)C(=O)N[C@H](C(=O)N[C@@H](CC(N)=O)C(=O)N[C@H](C(=O)NCC(=O)N[C@@H](CCCNC(=N)N)C(=O)N[C@@H](CC(N)=O)C(=O)N[C@H](C(=O)N[C@@H](Cc1ccc(O)cc1)C(N)=O)[C@@H](C)O)C(C)C)[C@@H](C)O
notes: also called compound 79

Biological target: T1, human calcitonin receptor
Assay: ratio of hCTR IC50 to hAmylin-R IC50 (reference: human amylin receptor)
Procedure, shortened: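 Competition binding by SPA with cell membranes (35 ng/μL) and SPA beads in 50 mM Hepes pH 7.4 with 1 mM CaCl2, 5 mM MgCl2, 0.1% OA and 0.02% Tween20. Incubated 120 min at 25 °C with shaking, then counted.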

| Binder | Ratio hCT/hAmylin binding |
| --- | --- |
| B1 | 101 |
| B2 | 11.1 |
| B3 | 46.3 |
| B4 | 82.4 |
| B5 | 28.5 |
| B6 | 46.1 |

Biological target: T1, human calcitonin receptor
Assay: SPA competition on BHK cell membranes, 125I-calcitonin as radioligand (Assay VII)
Procedure, shortened: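 BHK hCTR membranes 35 ng/μL + SPA beads 0.05 mg/well; buffer 50 mM Hepes pH 7.4, 1 mM CaCl2, 5 mM MgCl₂, 0.1% OA, 0.02% Tween20. 120 min, 25° C., shaking. Scintillation count; IC50 by one-site binding competition.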

| Binder | IC50 [nM] |
| --- | --- |
| B1 | 17.8 |
| B2 | 4.28 |
| B3 | 6.86 |
| B4 | 53.5 |
| B5 | 6.62 |
| B6 | 36.4 |
